PMC7618776, “Direct recruitment of Mis18 to interphase spindle pole bodies promotes CENP-A chromatin assembly” (Current biology : CB, 2023)

Molecular target: T1, 6His-msfGFP-TEV-Mis18FL (S. pombe, UniProt Q9P802 1-194)
T1 construct: Mis18, S. pombe, full length (residues 1-194); Cloned into the vector pET His6 msfGFP TEV (9GFP, Addgene 48287); also called GFP-Mis18; 6His-GFP-Mis18FL; source: E. coli BL21 Gold, purified (HisTrap HP, SEC); not shown: msfGFP, N-terminal, kept
T1 sequence (looked up): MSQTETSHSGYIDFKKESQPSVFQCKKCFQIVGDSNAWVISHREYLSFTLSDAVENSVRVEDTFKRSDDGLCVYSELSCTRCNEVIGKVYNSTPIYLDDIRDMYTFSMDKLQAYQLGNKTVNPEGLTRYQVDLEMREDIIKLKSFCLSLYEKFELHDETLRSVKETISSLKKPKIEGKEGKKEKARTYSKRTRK
Assay: pull-down; 6His-MBP-Sad1(2-167) or 6His-MBP on amylose resin mixed with candidate binding proteins, each protein at 5 μM; 20 mM HEPES pH 7.0, 150 mM NaCl, 1 mM TCEP, 0.01% Tween-20; 4°C 1 hr; Coomassie-stained SDS-PAGE
Conditions: both partners purified

- binding result: binds
B1: 6His-MBP-Sad1(2-167) (domain or fragment, S. pombe, UniProt Q09825 2-167, looked up)
chain: FTNTPVGGKRERQNGAHPAWSTLGANSAQIHQNTADLASKMHKLRYTKIRSPPTRVSIESITPKQRFPAPNFEQAYHSNIRYEQEESDNEEFENVVKNGHEASTNVFYESDGDDEEFVNEEYENSIDEESDDEGYSLNEDTTATNASFRYPMNQRSTRKSQFYSSK
notes: Cloned into the vector pET-6His-MBP-TEV (9C, Addgene 48286) by LIC; also called MBP-Sad1-N; source: E. coli BL21-CodonPlus (DE3)-RIPL, purified (TALON resin); not shown: His6, N-terminal, kept; MBP, N-terminal, kept
